{
  "source": "paper PMC12249877",
  "about": "“AlphaFold 3-Assisted Deciphering of the DNA Recognition by DREB1 Transcription Factors in Rice”",
  "key": {"OsDREB1A-DBD V64A": {"target": "OsDREB1A-DBD V64A (Oryza sativa (rice), UniProt Q64MA1 32-103, V64A)", "sequence (Q64MA1 32-103 V64A)": "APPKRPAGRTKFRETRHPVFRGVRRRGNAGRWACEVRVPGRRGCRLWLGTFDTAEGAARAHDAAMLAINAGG", "experiment": "EMSA; 0.6 uM protein; EMSA: 0.01 uM FAM-dsDNA, 50 mM NaH2PO4, 150 mM NaCl, 5 mM DTT, 2% glycerol, pH 6.8, 15 min, room temperature; 12% native PAGE in 0.5x TBE", "conditions": "protein: recombinant; tags: C-terminal His-tag (pET28); blunt"}, "OsDREB1A-DBD F43G": {"target": "OsDREB1A-DBD F43G (Oryza sativa (rice), UniProt Q64MA1 32-103, F43G)", "sequence (Q64MA1 32-103 F43G)": "as the sequence (Q64MA1 32-103 V64A) above, with F12G, A33V counted along it", "experiment": "EMSA; 0.6 uM protein; EMSA: 0.01 uM FAM-dsDNA, 50 mM NaH2PO4, 150 mM NaCl, 5 mM DTT, 2% glycerol, pH 6.8, 15 min, room temperature; 12% native PAGE in 0.5x TBE", "conditions": "protein: recombinant; tags: C-terminal His-tag (pET28); blunt"}},
  "data": [
    {"binder": "CRT (dsDNA) DNA 1: GTACGCCGACACT DNA 2: AGTGTCGGCGTAC", "values": [
      {"measurement": "binding result", "setting": "OsDREB1A-DBD V64A", "result": "binds"},
      {"measurement": "binding result", "setting": "OsDREB1A-DBD F43G", "result": "binds"}
    ]}
  ]
}
